According to patent US5908756:

Target: neuronal nitric oxide synthase (nNOS) expressed in transfected HEK 293 cells (rat)

Sequence of thrombin-cleaved PIN-1 (P61273 whole entry): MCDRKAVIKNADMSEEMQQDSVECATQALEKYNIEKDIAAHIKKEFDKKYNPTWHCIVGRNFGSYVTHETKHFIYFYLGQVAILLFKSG

Row | 50% inhibition of NOS activity [µM] | Substance
1 | 1 | glutathione-S-transferase (GST)-PIN-1 fusion protein
2 | 5000 | thrombin-cleaved PIN-1
